The values below come from patent US20150374848A1, “Methods for the Treatment of Head and Neck Squamous Cell Carcinoma” (Vigilant Biosciences, Inc., priority 2010, published 2015).

Data set [1] addresses CD44 as expressed on human HNSCC cell lines (T.Tn, SCC-15, Detroit-562, CAL 27) (human) (UniProt P16070). Description: flow cytometry on CAL 27 cells, antibody at 20 ug/mL, duplicate samples. In general terms: In flow cytometry, cells or beads pass a laser one at a time.
For the next data set, the system named is T.Tn HNSCC cell line. Briefly: FACS binding to HNSCC cell line T.Tn. More on the design: species or system human. To be noted: antibody 20 μg/mL on ice 30 minutes. The procedure: (§1) The binding of chPTA-4621 and huPTA-4621 to HNSCC cell lines T.Tn, SCC-15, and Detroit-562 was assessed by flow cytometry (FACS). Cells were prepared for FACS by initially washing the cell monolayer with DPBS (without Ca^++ and Mg^++). Cell dissociation buffer (INVITROGEN, Burlington, ON; for T.Tn, SCC-15 and Detroit-562) was then used to dislodge the cells from their cell culture plates at 37° C. After centrifugation and collection, the cells were resuspended in DPBS containing MgCl2, CaCl2, and 2 percent fetal bovine serum at 4° C. (staining media) and counted, aliquoted to appropriate cell density, spun down to pellet the cells and resuspended in staining media at 4° C. in the presence of test antibodies (chimeric or humanized PTA-4621) or control antibodies (isotype control, anti-EGFR (C225; T.Tn, SCC-15 and Detroit-562). Isotype control and test antibodies were assessed at 20 μg/mL on ice for 30 minutes. For detection of bound antibody, an Alexa Fluor 546 conjugated secondary antibody was used. Prior to the addition of the secondary antibody, the cells were washed once with staining media. The secondary antibody in staining media was then added according to manufacturer's directions. […] Flow cytometric acquisition of the T.Tn, SCC-15 and Detroit-562 cells was assessed by running samples on a FACScan using the CellQuest software (BD Biosciences, Oakville, ON). […]

Another data set deals with SCC-15 HNSCC cell line. Description: FACS binding to HNSCC cell line SCC-15. To be noted: antibody 20 μg/mL on ice 30 minutes. More on the design: species or system human. The procedure: as §1
For data set [2], the system named is Detroit-562 HNSCC cell line. Briefly: FACS binding to HNSCC cell line Detroit-562. More on the design: species or system human. To be noted: antibody 20 μg/mL on ice 30 minutes. The procedure: as §1
The next data set relates to T.Tn HNSCC xenograft. Description: established T.Tn HNSCC xenograft model. The class given is in vivo. The settings on record: 20 mg/kg i.p. three times per week. The procedure:
With reference to FIGS. 2 and 3, 6 to 8 week old female SCID mice were implanted with 10 million T.Tn cells in 100 microliters PBS solution injected subcutaneously in the right flank. The mice were randomly divided into 2 treatment groups of 10. When the average tumor volume of the mice reached approximately 264-268 mm^3, 20 mg/kg of chPTA-4621 test antibody or buffer control was administered intraperitoneally to each cohort in a volume of 300 microliters after dilution from the stock concentration with a diluent that contained 2.7 mM KCl, 1 mM KH2PO4, 137 mM NaCl and 20 mM Na2HPO4. The antibody and control samples were then administered three times per week for the duration of the study. Tumor growth was measured about every 7 days with calipers. The study was completed after ten doses of antibody. Body weights of the animals were recorded once per week for the duration of the study. At the end of the study all animals were euthanized according to CCAC guidelines.

Data set [3] relates to human breast cancer, liver cancer and prostate cancer xenografts. To be noted: preventative and established models; cited from earlier work.

Entries after “also recorded” stand apart in the source; their conditions may differ.

“Humanized PTA-4621 (RO5429083) (antibody)” displayed a fold binding compared to the humanized IgG1 isotype control in data set [1] of 37 fold.

B1: chPTA-4621: chimeric PTA-4621 comprising VH and VL domains of SEQ ID NO:1 and SEQ ID NO:2 (antibody, V domains shown)
VH: EVKLLESGGGLVQPGGSLKLSCATSGFDFSRYWMSWVRQAPGKGLEWIGEVNPDSTSINYTPSLKDQFIISRDNAKNTLDLQMSKVSSEDTALYYCTRPNYYGSRYHYYAMDYWGQGTSVTVSS
VL: DIQMTQTTSSLSVSLGDRVTINCRASQDINNYLNWYQQKPDGTVKLLIYYTSRLHSGVPSRFSGSGSGTDFSLTISNLEKEDVATYFCQQGSTLPFTFGSGTKLEIK
modifications: human constant regions without entry; Synthetically generated peptide
As for B1, the “binding to T.Tn cell line (FACS)” value in the data set on T.Tn HNSCC cell line is given as “bind”. For the same molecule, the “binding to SCC-15 cell line (FACS)” value in the data set with SCC-15 HNSCC cell line is “bind”. For the same molecule, the “binding to Detroit-562 cell line (FACS)” value in data set [2] is reported as “bind”. Also, in the data set on T.Tn HNSCC xenograft, the “clinical signs of toxicity / tolerability” value is “no clinical signs of toxicity; also recorded: well-tolerated” and the “mean body weight between the groups at end of treatment period” value is reported as “no significant difference”. Also, the “reduction of tumor growth compared to buffer treated group” value in the data set with T.Tn HNSCC xenograft (ten doses, day 105, p=0.0068) stood at 54.9%.

B2: PTA-4621: murine monoclonal anti-CD44 antibody produced by hybridoma ATCC PTA-4621; VH SEQ ID NO:1, VL SEQ ID NO:2 (antibody, V domains shown)
VH: EVKLLESGGGLVQPGGSLKLSCATSGFDFSRYWMSWVRQAPGKGLEWIGEVNPDSTSINYTPSLKDQFIISRDNAKNTLDLQMSKVSSEDTALYYCTRPNYYGSRYHYYAMDYWGQGTSVTVSS
VL: DIQMTQTTSSLSVSLGDRVTINCRASQDINNYLNWYQQKPDGTVKLLIYYTSRLHSGVPSRFSGSGSGTDFSLTISNLEKEDVATYFCQQGSTLPFTFGSGTKLEIK
modifications: Synthetically generated peptide
Take B2: the “anti-tumor effects in pre-clinical xenograft models” value in data set [3] was “significant anti-tumor effects”.
